Measurements taken from patent US20230250154A1 (CYTONICS, published 2023).

Legend:
Test in all cases: cell-based or functional assay
[1] = target: Elastase
[2] = target: T1, Cathepsin G (UniProt P08311 21-244)
T1 sequence (looked up): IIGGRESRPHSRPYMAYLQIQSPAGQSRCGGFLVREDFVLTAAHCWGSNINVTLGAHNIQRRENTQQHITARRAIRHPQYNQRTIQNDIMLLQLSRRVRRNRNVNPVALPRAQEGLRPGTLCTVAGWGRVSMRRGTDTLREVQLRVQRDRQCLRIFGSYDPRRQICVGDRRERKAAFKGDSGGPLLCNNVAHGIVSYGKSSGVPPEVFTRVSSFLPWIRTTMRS

[3] = target: T2, MMP1 (human, UniProt P03956 100-469, limits assumed)
T2 sequence (looked up): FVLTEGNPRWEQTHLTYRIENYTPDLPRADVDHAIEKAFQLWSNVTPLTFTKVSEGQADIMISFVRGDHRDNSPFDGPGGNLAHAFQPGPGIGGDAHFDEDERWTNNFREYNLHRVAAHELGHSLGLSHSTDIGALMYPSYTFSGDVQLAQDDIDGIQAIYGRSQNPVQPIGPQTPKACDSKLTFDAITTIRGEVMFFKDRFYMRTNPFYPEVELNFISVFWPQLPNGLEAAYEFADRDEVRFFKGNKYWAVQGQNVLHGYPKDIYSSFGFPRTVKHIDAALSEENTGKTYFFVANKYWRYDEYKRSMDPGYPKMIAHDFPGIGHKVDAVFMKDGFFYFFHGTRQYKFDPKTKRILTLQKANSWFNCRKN

B1: Variant A2M, bait region SEQ ID NO 131 (other)
chain: SVSGKPQYMVLVPSLLHTETTEKGCVLLSYLNETVTVSASLESVRGNRSLFTDLEAENDVLHCVAFAVPKSSSNEEVMFLTVQVKGPTQEFKKRTTVMVKNEDSLVFVQTDKSIYKPGQTVKFRVVSMDENFHPLNELIPLVYIQDPKGNRIAQWQSFQLEGGLKQFSFPLSSEPFQGSYKVVVQKKSGGRTEHPFTVEEFVLPKFEVQVTVPKIITILEEEMNVSVCGLYTYGKPVPGHVTVSICRKYSDASDCHGEDSQAFCEKFSGQLNSHGCFYQQVKTKVFQLKRKEYEMKLHTEAQIQEEGTVVELTGRQSSEITRTITKLSFVKVDSHFRQGIPFFGQVRLVDGKGVPIPNKVIFIRGNEANYYSNATTDEHGLVQFSINTTNVMGTSLTVRVNYKDRSPCYGYQWVSEEHEEAHHTAYLVFSPSKSFVHLEPMSHELPCGHTQTVQAHYILNGGTLLGLKKLSFYYLIMAKGGIVRTGTHGLLVKQEDMKGHFSISIPVKSDIAPVARLLIYAVLPTGDVIGDSAKYDVENCLANKVDLSFSPSQSLPASHAHLRVTAAPQSVCALRAVDQSVLLMKPDAELSASSVYNLLPEKDLTGFPGPLNDQDDEDCINRHNVYINGITYTPVSSTNEKDMYSFLEDMGLKAFTNSKIRKPKMCPQLEQYEMHGPEGEGEGEGISEDLVVQIPENFFGVKEEEGLGSVEEPHTKLRKYFPETWIWDLVVVNSAGVAEVGVTVPDTITEWKAGAFCLSEDAGLGISSTASLRAFQPFFVELTMPYSVIRGEAFTLKATVLNYLPKCIRVSVQLEASPAFLAVPVEKEQAPHCICANGRQTVSWAVTPKSLGNVNFTVSAEALESQELCGTEVPSVPEHGRKDTVIKPLLVEPEGLEKETTFNSLLCPSGGEVSEELSLKLPPNVVEESARASVSVLGDILGSAMQNTQNLLQMPYGCGEQNMVLFAPNIYVLDYLNETQQLTPEIKSKAIGYLNTGYQRQLNYKHYDGSYSTFGERYGRNQGNTWLTAFVLKTFAQARAYIFIDEAHITQALIWLSQRQKDNGCFRSSGSLLNNAIKGGVEDEVTLSAYITIALLEIPLTVTHPVVRNALFCLESAWKTAQEGDHGSHVYTKALLAYAFALAGNQDKRKEVLKSLNEEAVKKDNSVHWERPQKPKAPVGHFYEPQAPSAEVEMTSYVLLAYLTAQPAPTSEDLTSATNIVKWITKQQNAQGGFSSTQDTVVALHALSKYGAATFTRTGKAAQVTIQSSGTFSSKFQVDNNNRLLLQQVSLPELPGEYSMKVTGEGCVYLQTSLKYNILPEKEEFPFALGVQTLPQTCDEPKAHTSFQISLSVSYTGSRSASNMAIVDVKMVSGFIPLKPTVKMLERSNHVSRTEVSSNHVLIYLDKVSNQTLSLFFTVLQDVPVRDLKPAIVKVYDYYETDEFAIAEYNAPCSKDLGNADYKDDDDKGASHHHHHH
- Protease Inhibition (% of WT) [1]: 300 % of WT
- Protease Inhibition (% of WT) [2]: 200 % of WT
- Protease Inhibition (% of WT) [3]: 300 % of WT
